Laboratory results: paper PMC9922815
pKd: −log10 of the molar value.

Target: rabbit skeletal muscle F-actin (rabbit) (UniProt P68135)
Assay: co-sedimentation; high-speed F-actin cosedimentation: 5 uM UtrN-R3 incubated 30 min with 0-160 uM phalloidin-stabilized F-actin, 100,000g for 20 min; F-buffer (4.5 mM Tris-HCl pH 8.0, 0.18 mM CaCl2, 50 mM KCl, 2 mM MgCl2, 1.2 mM ATP, 0.5 mM DTT); bound and free by densitometry of Coomassie gels, hyperbola fit

pKd	Substance
3.98	UtrN-R3 WT, bacterially derived (mouse utrophin fragment encoding the N terminus through spectrin repeat 3, not phosphorylated) (from UniProt E9Q6R7 1-3430) (domain or fragment)
4.07	UtrN-R3 WT, insect cell-derived (mouse utrophin fragment encoding the N terminus through spectrin repeat 3, phosphorylated) (from UniProt E9Q6R7 1-3430) (domain or fragment)
